Patent US12269859B2, “Synthetic immune receptors and methods of use thereof” (Angeles Therapeutics, Inc., priority 2016, dated 2025)

Test system: target antigen-expressing cell line
Test: Jurkat NFAT-GFP assay, coculture with target cell lines expressing the respective target antigen (summary Table 10A)
Format: cell-based, human
Design: key: The signs +/−, +, 2+ etc. after the name of the cell lines indicate the relative degree of positivity on the Jurkat-NFAT-GFP assay as measured by the % GFP positive cells; +: relative degree of positivity on the Jurkat-NFAT-GFP assay as measured by the % GFP positive cells; 2+: relative degree of positivity on the Jurkat-NFAT-GFP assay as measured by the % GFP positive cells
How it was run: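 Jurkat cells carrying an NFAT-site IL-2 promoter driving GFP were lentivirally transduced with SIRs, puromycin-selected, then cocultured with antigen-expressing target cells at E:T about 1:2 for about 4–18 hours. GFP induction was read by flow cytometry as % GFP-positive cells versus parental Jurkat-NFAT-GFP.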

B1: 022817-N08 (protein)
chain: MALPVTALLLPLALLLHAARPDVVMTQTPLSLSVTPGQPASISCRSSQSLVHNNGNTYLHWYLQKPGQSPQLLIYKVSNRFSGVPDRFSGSGSGTDFTLKISRVEAEDVGVYFCSQSTHVPPYTFGGGTKVEIKLEEQKLISEEDLGSGEDLKNVFPPEVAVFEPSKAEIAHTQKATLVCLATGFYPDHVELSWWVNGKEVHSGVCTDPQPLKEQPALNDSRYCLSSRLRVSATFWQNPRNHFRCQVQFYGLSENDEWTQDRAKPVTQIVSAEAWGRADCGITSASYHQGVLSATILYEILLGKATLYAVLVSALVLMAMVKRKDSRGRAKRSGSGATNFSLLKQAGDVEENPGPTSMDWIWRILFLVGAATGAHSFEEVQLVESGGGLVQPGGSLRLSCAASGFTFSDYYMAWVRQAPGKGLEWVAEINYDGSSTYYVDSVKGRFTISRDNAKNSLYLQMNSLRAEDTAVYYCARDRGFYFDYWGQGTTVTVSSTREQKLISEEDLGSGIQNPDPAVYQLRDSKSSDKSVCLFTDFDSQTNVSQSKDSDVYITDKCVLDMRSMDFKSNSAVAWSNKSDFACANAFNNSIIPEDTFFPSSDVPCDVKLVEKSFETDTNLNFQNLSVIGFRILLLKVAGFNLLMTLRLWSSRAKRSGSGVKQTLNFDLLKLAGDVESNPGPSRGHMTEYKPTVRLATRDDVPRAVRTLAAAFADYPATRHTVDPDRHIERVTELQELFLTRVGLDIGKVWVADDGAAVAVWTTPESVEAGAVFAEIGPRMAELSGSRLAAQQQMEGLLAPHRPKEPAWFLATVGVSPDHQGKGLGSAVVLPGVEAAERAGVPAFLETSAPRNLPFYERLGFTVTADVEVPEGPRTWCMTRKPGA
- NFAT-GFP ASSAY Positive Cell lines (coculture with L363 cells): (+/−)
- NFAT-GFP ASSAY Positive Cell lines (coculture with U266 cells): U266 (+/−), L363

B2: 012517-D12 (protein)
chain: MALPVTALLLPLALLLHAARPLEGKPIPNPLLGLDSTGSGEDLKNVFPPEVAVFEPSKAEIAHTQKATLVCLATGFYPDHVELSWWVNGKEVHSGVCTDPQPLKEQPALNDSRYCLSSRLRVSATFWQNPRNHFRCQVQFYGLSENDEWTQDRAKPVTQIVSAEAWGRADCGITSASYHQGVLSATILYEILLGKATLYAVLVSALVLMAMVKRKDSRGRAKRSGSGATNFSLLKQAGDVEENPGPTSMALPVTALLLPLALLLHAARPDVVMTQTPLSLSVTPGQPASISCRSSQSLVHSNGLTYLHWYLQKPGQSPQLLIYKVSNRFSGVPDRFSGSGSGTDFTLKISRVEAEDVGVYFCSQSTHVPPFTFGGGTKVEIKGGGGSGGGGSGGGGSEVQLVESGGGLVQPGGSLRLSCAASGFTFSDYYMAWVRQAPGKGLEWVASINYDGESTYYVDSVKGRFTISRDNAKNSLYLQMNSLRAEDTAVYYCARDRGYYFDYWGQGTTVTVSSTREQKLISEEDGSGIQNPDPAVYQLRDSKSSDKSVCLFTDFDSQTNVSQSKDSDVYITDKCVLDMRSMDFKSNSAVAWSNKSDFACANAFNNSIIPEDTFFPSSDVPCDVKLVEKSFETDTNLNFQNLSVIGFRILLLKVAGFNLLMTLRLWSSRAKRSGSGVKQTLNFDLLKLAGDVESNPGPSRGHMTEYKPTVRLATRDDVPRAVRTLAAAFADYPATRHTVDPDRHIERVTELQELFLTRVGLDIGKVWVADDGAAVAVWTTPESVEAGAVFAEIGPRMAELSGSRLAAQQQMEGLLAPHRPKEPAWFLATVGVSPDHQGKGLGSAVVLPGVEAAERAGVPAFLETSAPRNLPFYERLGFTVTADVEVPEGPRTWCMTRKPGA
- NFAT-GFP ASSAY Positive Cell lines (coculture with L363 cells): U266 (+), L363 (+)
- NFAT-GFP ASSAY Positive Cell lines (coculture with U266 cells): U266 (+), L363 (+)
